Measurements reported in patent US20240360227A1.

B1: VRDN-02025 (antibody, V domains shown)
VH: QVQLQESGPGLVKPSETLSLTCTVSGYSITGGYLWNWIRQPPGKGLEWIGYISYDGTNNYKPSLKDRVTISRDTSKNQFSLKLSSVTAADTAVYYCARYGRVHFDYWGQGTLVTVSS
VL: DIVMTQSPLSLPVTPGEPASISCRSSQSIVHSNGNTYLQWYLQKPGQSPQLLIYKVSNRLYGVPDRFSGSGSGTDFTLKISRVEAEDVGVYYCFQGSHVPWTFGQGTKVEIK
B2: VRDN-02032 (antibody, V domains shown)
VH: QVQLQESGPGLVKPSETLSLTCTVSGYSITGGYLWNWIRQPPGKGLEWIGYISYDGTNNYKPSLKDRVTISRDTSKNQFSLKLSSVTAADTAVYYCARYGRVFFDYWGQGTLVTVSS
VL: DIVMTQSPLSLPVTPGEPASISCRSSHSIVHSNGNTYLQWYLQKPGQSPQLLIYKVSNRLYGVPDRFSGSGSGTDFTLKISRVEAEDVGVYYCFQGSHVPWTFGQGTKVEIK
B3: VRDN-02028 (antibody, V domains shown)
VH: QVQLQESGPGLVKPSETLSLTCTVSGYSITGGYLWNWIRQPPGKGLEWIGYISYDGTNNYKPSLKDRVTISRDTSKNQFSLKLSSVTAADTAVYYCARYGRVFFDHWGQGTLVTVSS
VL: DIVMTQSPLSLPVTPGEPASISCRSSQSIVHSNGNTYLQWYLQKPGQSPQLLIYKVSNRLYGVPDRFSGSGSGTDFTLKISRVEAEDVGVYYCFQGSHVPWTFGQGTKVEIK
B4: VRDN-02031 (antibody, V domains shown)
VH: QVQLQESGPGLVKPSETLSLTCTVSGYSITGGYLWNWIRQPPGKGLEWIGYISYDGTNNYKPSLKDRVTISRDTSKNQFSLKLSSVTAADTAVYYCARYGRVFFDYWGQGTLVTVSS
VL: DIVMTQSPLSLPVTPGEPASISCRSHQSIVHSNGNTYLQWYLQKPGQSPQLLIYKVSNRLYGVPDRFSGSGSGTDFTLKISRVEAEDVGVYYCFQGSHVPWTFGQGTKVEIK
B5: VRDN-02040 (antibody, V domains shown)
VH: QVQLQESGPGLVKPSETLSLTCTVSGYSITGGYLWNWIRQPPGKGLEWIGYISYDGTNNYKPSLKDRVTISRDTSKNQFSLKLSSVTAADTAVYYCARYGRVFFDYWGQGTLVTVSS
VL: DIVMTQSPLSLPVTPGEPASISCRSSQSIVHSNGNHYLQWYLQKPGQSPQLLIYKVSNRLYGVPDRFSGSGSGTDFTLKISRVEAEDVGVYYCFQGSHVPWTFGQGTKVEIK
B6: VRDN-02027 (antibody, V domains shown)
VH: QVQLQESGPGLVKPSETLSLTCTVSGYSITGGYLWNWIRQPPGKGLEWIGYISYDGTNNYKPSLKDRVTISRDTSKNQFSLKLSSVTAADTAVYYCARYGRVFFHYWGQGTLVTVSS
VL: DIVMTQSPLSLPVTPGEPASISCRSSQSIVHSNGNTYLQWYLQKPGQSPQLLIYKVSNRLYGVPDRFSGSGSGTDFTLKISRVEAEDVGVYYCFQGSHVPWTFGQGTKVEIK
B7: VRDN-02033 (antibody, V domains shown)
VH: QVQLQESGPGLVKPSETLSLTCTVSGYSITGGYLWNWIRQPPGKGLEWIGYISYDGTNNYKPSLKDRVTISRDTSKNQFSLKLSSVTAADTAVYYCARYGRVFFDYWGQGTLVTVSS
VL: DIVMTQSPLSLPVTPGEPASISCRSSQHIVHSNGNTYLQWYLQKPGQSPQLLIYKVSNRLYGVPDRFSGSGSGTDFTLKISRVEAEDVGVYYCFQGSHVPWTFGQGTKVEIK
B8: VRDN-02030 (antibody, V domains shown)
VH: QVQLQESGPGLVKPSETLSLTCTVSGYSITGGYLWNWIRQPPGKGLEWIGYISYDGTNNYKPSLKDRVTISRDTSKNQFSLKLSSVTAADTAVYYCARYGRVFFDYWGQGTLVTVSS
VL: DIVMTQSPLSLPVTPGEPASISCRHSQSIVHSNGNTYLQWYLQKPGQSPQLLIYKVSNRLYGVPDRFSGSGSGTDFTLKISRVEAEDVGVYYCFQGSHVPWTFGQGTKVEIK
B9: VRDN-02036 (antibody, V domains shown)
VH: QVQLQESGPGLVKPSETLSLTCTVSGYSITGGYLWNWIRQPPGKGLEWIGYISYDGTNNYKPSLKDRVTISRDTSKNQFSLKLSSVTAADTAVYYCARYGRVFFDYWGQGTLVTVSS
VL: DIVMTQSPLSLPVTPGEPASISCRSSQSIVHHNGNTYLQWYLQKPGQSPQLLIYKVSNRLYGVPDRFSGSGSGTDFTLKISRVEAEDVGVYYCFQGSHVPWTFGQGTKVEIK
B10: VRDN-02003 (antibody, V domains shown)
VH: QVQLQESGPGLVKPSETLSLTCTVSGYHITGGYLWNWIRQPPGKGLEWIGYISYDGTNNYKPSLKDRVTISRDTSKNQFSLKLSSVTAADTAVYYCARYGRVFFDYWGQGTLVTVSS
VL: DIVMTQSPLSLPVTPGEPASISCRSSQSIVHSNGNTYLQWYLQKPGQSPQLLIYKVSNRLYGVPDRFSGSGSGTDFTLKISRVEAEDVGVYYCFQGSHVPWTFGQGTKVEIK
B11: VRDN-02035 (antibody, V domains shown)
VH: QVQLQESGPGLVKPSETLSLTCTVSGYSITGGYLWNWIRQPPGKGLEWIGYISYDGTNNYKPSLKDRVTISRDTSKNQFSLKLSSVTAADTAVYYCARYGRVFFDYWGQGTLVTVSS
VL: DIVMTQSPLSLPVTPGEPASISCRSSQSIHHSNGNTYLQWYLQKPGQSPQLLIYKVSNRLYGVPDRFSGSGSGTDFTLKISRVEAEDVGVYYCFQGSHVPWTFGQGTKVEIK
B12: VRDN-02038 (antibody, V domains shown)
VH: QVQLQESGPGLVKPSETLSLTCTVSGYSITGGYLWNWIRQPPGKGLEWIGYISYDGTNNYKPSLKDRVTISRDTSKNQFSLKLSSVTAADTAVYYCARYGRVFFDYWGQGTLVTVSS
VL: DIVMTQSPLSLPVTPGEPASISCRSSQSIVHSNHNTYLQWYLQKPGQSPQLLIYKVSNRLYGVPDRFSGSGSGTDFTLKISRVEAEDVGVYYCFQGSHVPWTFGQGTKVEIK
B13: VRDN-02026 (antibody, V domains shown)
VH: QVQLQESGPGLVKPSETLSLTCTVSGYSITGGYLWNWIRQPPGKGLEWIGYISYDGTNNYKPSLKDRVTISRDTSKNQFSLKLSSVTAADTAVYYCARYGRVFHDYWGQGTLVTVSS
VL: DIVMTQSPLSLPVTPGEPASISCRSSQSIVHSNGNTYLQWYLQKPGQSPQLLIYKVSNRLYGVPDRFSGSGSGTDFTLKISRVEAEDVGVYYCFQGSHVPWTFGQGTKVEIK
B14: VRDN-02039 (antibody, V domains shown)
VH: QVQLQESGPGLVKPSETLSLTCTVSGYSITGGYLWNWIRQPPGKGLEWIGYISYDGTNNYKPSLKDRVTISRDTSKNQFSLKLSSVTAADTAVYYCARYGRVFFDYWGQGTLVTVSS
VL: DIVMTQSPLSLPVTPGEPASISCRSSQSIVHSNGHTYLQWYLQKPGQSPQLLIYKVSNRLYGVPDRFSGSGSGTDFTLKISRVEAEDVGVYYCFQGSHVPWTFGQGTKVEIK
B15: VRDN-02037 (antibody, V domains shown)
VH: QVQLQESGPGLVKPSETLSLTCTVSGYSITGGYLWNWIRQPPGKGLEWIGYISYDGTNNYKPSLKDRVTISRDTSKNQFSLKLSSVTAADTAVYYCARYGRVFFDYWGQGTLVTVSS
VL: DIVMTQSPLSLPVTPGEPASISCRSSQSIVHSHGNTYLQWYLQKPGQSPQLLIYKVSNRLYGVPDRFSGSGSGTDFTLKISRVEAEDVGVYYCFQGSHVPWTFGQGTKVEIK
B16: VRDN-02034 (antibody, V domains shown)
VH: QVQLQESGPGLVKPSETLSLTCTVSGYSITGGYLWNWIRQPPGKGLEWIGYISYDGTNNYKPSLKDRVTISRDTSKNQFSLKLSSVTAADTAVYYCARYGRVFFDYWGQGTLVTVSS
VL: DIVMTQSPLSLPVTPGEPASISCRSSQSHVHSNGNTYLQWYLQKPGQSPQLLIYKVSNRLYGVPDRFSGSGSGTDFTLKISRVEAEDVGVYYCFQGSHVPWTFGQGTKVEIK
B17: VRDN-02029 (antibody, V domains shown)
VH: QVQLQESGPGLVKPSETLSLTCTVSGYSITGGYLWNWIRQPPGKGLEWIGYISYDGTNNYKPSLKDRVTISRDTSKNQFSLKLSSVTAADTAVYYCARYGRVFFDYWGQGTLVTVSS
VL: DIVMTQSPLSLPVTPGEPASISCHSSQSIVHSNGNTYLQWYLQKPGQSPQLLIYKVSNRLYGVPDRFSGSGSGTDFTLKISRVEAEDVGVYYCFQGSHVPWTFGQGTKVEIK

Key:
[1] = molecular target: Recombinant human his-tagged IGF R extracellular domain protein (human) (UniProt P08069); test: SPR, Ab captured via anti-huIgG Fc, pH 7.4
[2] = molecular target: Recombinant human his-tagged IGF R extracellular domain protein (human) (UniProt P08069); test: SPR, Ab captured via anti-huIgG Fc, dissociation at pH 6

| Binder | Kd [1] | koff [1] | kon [1] | Kd [2] | koff [2] | kon [2] |
| --- | --- | --- | --- | --- | --- | --- |
| B1 | 2.08 nM | 0.000141 s⁻¹ | 68000 M⁻¹ s⁻¹ | 1.51 nM | 9.5e-05 s⁻¹ | 63000 M⁻¹ s⁻¹ |
| B2 | 0.769 nM | 7.16e-05 s⁻¹ | 93100 M⁻¹ s⁻¹ | 0.998 nM | 9.61e-05 s⁻¹ | 96300 M⁻¹ s⁻¹ |
| B3 | 0.525 nM | 5.4e-05 s⁻¹ | 103000 M⁻¹ s⁻¹ | 1.11 nM | 0.000107 s⁻¹ | 97000 M⁻¹ s⁻¹ |
| B4 | 0.468 nM | 4.56e-05 s⁻¹ | 97300 M⁻¹ s⁻¹ | 1.22 nM | 0.000115 s⁻¹ | 94400 M⁻¹ s⁻¹ |
| B5 | 1.22 nM | 0.000104 s⁻¹ | 85400 M⁻¹ s⁻¹ | 1.04 nM | 9.07e-05 s⁻¹ | 87000 M⁻¹ s⁻¹ |
| B6 | 6.73 nM | 0.000957 s⁻¹ | 142000 M⁻¹ s⁻¹ | 2.85 nM | 0.000121 s⁻¹ | 42600 M⁻¹ s⁻¹ |
| B7 | 0.822 nM | 8.1e-05 s⁻¹ | 98500 M⁻¹ s⁻¹ | 1.19 nM | 0.00011 s⁻¹ | 92700 M⁻¹ s⁻¹ |
| B8 | 0.646 nM | 5.48e-05 s⁻¹ | 84800 M⁻¹ s⁻¹ | 1.09 nM | 9.65e-05 s⁻¹ | 88900 M⁻¹ s⁻¹ |
| B9 | 0.444 nM | 4.42e-05 s⁻¹ | 99500 M⁻¹ s⁻¹ | 1.08 nM | 0.000102 s⁻¹ | 94200 M⁻¹ s⁻¹ |
| B10 | 0.423 nM | 4.72e-05 s⁻¹ | 112000 M⁻¹ s⁻¹ | 1 nM | 9.44e-05 s⁻¹ | 94300 M⁻¹ s⁻¹ |
| B11 | 0.646 nM | 6.32e-05 s⁻¹ | 97800 M⁻¹ s⁻¹ | 1.22 nM | 0.000107 s⁻¹ | 87600 M⁻¹ s⁻¹ |
| B12 | 0.649 nM | 5.36e-05 s⁻¹ | 82600 M⁻¹ s⁻¹ | 1.31 nM | 0.000111 s⁻¹ | 84800 M⁻¹ s⁻¹ |
| B13 | 2.4 nM | 9.99e-05 s⁻¹ | 41500 M⁻¹ s⁻¹ | 1.64 nM | 6.71e-05 s⁻¹ | 40800 M⁻¹ s⁻¹ |
| B14 | 0.586 nM | 5.26e-05 s⁻¹ | 89800 M⁻¹ s⁻¹ | 1.36 nM | 0.000109 s⁻¹ | 79800 M⁻¹ s⁻¹ |
| B15 | 0.844 nM | 6.43e-05 s⁻¹ | 76200 M⁻¹ s⁻¹ | 1.44 nM | 0.000101 s⁻¹ | 70000 M⁻¹ s⁻¹ |
| B16 | 1.03 nM | 0.000105 s⁻¹ | 101000 M⁻¹ s⁻¹ | 1.26 nM | 0.000107 s⁻¹ | 85000 M⁻¹ s⁻¹ |
| B17 | 0.599 nM | 5.53e-05 s⁻¹ | 92400 M⁻¹ s⁻¹ | 1.1 nM | 9.38e-05 s⁻¹ | 85600 M⁻¹ s⁻¹ |
